Data taken from IntAct's records for PubMed 11779178.

B1: Merlin (Homo sapiens), P35240-3 (parent)
chain: MAGAIASRMSFSSLKRKQPKTFTVRIVTMDAEMEFNCEMKWKGKDLFDLVCRTLGLRETWFFGLQYTIKDTVAWLKMDKKVLDHDVSKEEPVTFHFLAKFYPENAEEELVQEITQHLFFLQVKKQILDEKIYCPPEASVLLASYAVQAKYGDYDPSVHKRGFLAQEELLPKRVINLYQMTPEMWEERITAWYAEHRGRARDEAEMEYLKIAQDLEMYGVNYFAIRNKKGTELLLGVDALGLHIYDPENRLTPKISFPWNEIRNISYSDKEFTIKPLDKKIDVFKFNSSKLRVNKLILQLCIGNHDLFMRRRKADSLEVQQMKAQAREEKARKQMERQRLAREKQMREEAERTRDELERRLLQMKEEATMANEALMRSEETADLLAEKAQITEEEAKLLAQKAAEAEQEMQRIKATAIRTEEEKRLMEQKVLEAEVLALKMAEESERRAKEADQLKQDLQEAREAERRAKQKLLEIATKPTYPPMNPIPAPLPPDIPSFNLIGDSLSFDFKDTDMKRLSMEIEKEKVEYMEKSKHLQEQLNELKTEIEALKLKERETALDILHNENSDRGGSSKHNTIKKPQAQGRRPICI

Tests used:
[1] = variants of: B1; conditions: with eif3c_human EIF3C
[2] = variants of: B1; conditions: with HGS
[3] = variants of: B1; conditions: with HGS
[4] = variants of: B1; conditions: with NF2, P35240-1
[5] = variants of: B1; conditions: with sptb2_human SPTBN1, Q01082
Chain of sptb2_human SPTBN1, Q01082 (Q01082 whole entry): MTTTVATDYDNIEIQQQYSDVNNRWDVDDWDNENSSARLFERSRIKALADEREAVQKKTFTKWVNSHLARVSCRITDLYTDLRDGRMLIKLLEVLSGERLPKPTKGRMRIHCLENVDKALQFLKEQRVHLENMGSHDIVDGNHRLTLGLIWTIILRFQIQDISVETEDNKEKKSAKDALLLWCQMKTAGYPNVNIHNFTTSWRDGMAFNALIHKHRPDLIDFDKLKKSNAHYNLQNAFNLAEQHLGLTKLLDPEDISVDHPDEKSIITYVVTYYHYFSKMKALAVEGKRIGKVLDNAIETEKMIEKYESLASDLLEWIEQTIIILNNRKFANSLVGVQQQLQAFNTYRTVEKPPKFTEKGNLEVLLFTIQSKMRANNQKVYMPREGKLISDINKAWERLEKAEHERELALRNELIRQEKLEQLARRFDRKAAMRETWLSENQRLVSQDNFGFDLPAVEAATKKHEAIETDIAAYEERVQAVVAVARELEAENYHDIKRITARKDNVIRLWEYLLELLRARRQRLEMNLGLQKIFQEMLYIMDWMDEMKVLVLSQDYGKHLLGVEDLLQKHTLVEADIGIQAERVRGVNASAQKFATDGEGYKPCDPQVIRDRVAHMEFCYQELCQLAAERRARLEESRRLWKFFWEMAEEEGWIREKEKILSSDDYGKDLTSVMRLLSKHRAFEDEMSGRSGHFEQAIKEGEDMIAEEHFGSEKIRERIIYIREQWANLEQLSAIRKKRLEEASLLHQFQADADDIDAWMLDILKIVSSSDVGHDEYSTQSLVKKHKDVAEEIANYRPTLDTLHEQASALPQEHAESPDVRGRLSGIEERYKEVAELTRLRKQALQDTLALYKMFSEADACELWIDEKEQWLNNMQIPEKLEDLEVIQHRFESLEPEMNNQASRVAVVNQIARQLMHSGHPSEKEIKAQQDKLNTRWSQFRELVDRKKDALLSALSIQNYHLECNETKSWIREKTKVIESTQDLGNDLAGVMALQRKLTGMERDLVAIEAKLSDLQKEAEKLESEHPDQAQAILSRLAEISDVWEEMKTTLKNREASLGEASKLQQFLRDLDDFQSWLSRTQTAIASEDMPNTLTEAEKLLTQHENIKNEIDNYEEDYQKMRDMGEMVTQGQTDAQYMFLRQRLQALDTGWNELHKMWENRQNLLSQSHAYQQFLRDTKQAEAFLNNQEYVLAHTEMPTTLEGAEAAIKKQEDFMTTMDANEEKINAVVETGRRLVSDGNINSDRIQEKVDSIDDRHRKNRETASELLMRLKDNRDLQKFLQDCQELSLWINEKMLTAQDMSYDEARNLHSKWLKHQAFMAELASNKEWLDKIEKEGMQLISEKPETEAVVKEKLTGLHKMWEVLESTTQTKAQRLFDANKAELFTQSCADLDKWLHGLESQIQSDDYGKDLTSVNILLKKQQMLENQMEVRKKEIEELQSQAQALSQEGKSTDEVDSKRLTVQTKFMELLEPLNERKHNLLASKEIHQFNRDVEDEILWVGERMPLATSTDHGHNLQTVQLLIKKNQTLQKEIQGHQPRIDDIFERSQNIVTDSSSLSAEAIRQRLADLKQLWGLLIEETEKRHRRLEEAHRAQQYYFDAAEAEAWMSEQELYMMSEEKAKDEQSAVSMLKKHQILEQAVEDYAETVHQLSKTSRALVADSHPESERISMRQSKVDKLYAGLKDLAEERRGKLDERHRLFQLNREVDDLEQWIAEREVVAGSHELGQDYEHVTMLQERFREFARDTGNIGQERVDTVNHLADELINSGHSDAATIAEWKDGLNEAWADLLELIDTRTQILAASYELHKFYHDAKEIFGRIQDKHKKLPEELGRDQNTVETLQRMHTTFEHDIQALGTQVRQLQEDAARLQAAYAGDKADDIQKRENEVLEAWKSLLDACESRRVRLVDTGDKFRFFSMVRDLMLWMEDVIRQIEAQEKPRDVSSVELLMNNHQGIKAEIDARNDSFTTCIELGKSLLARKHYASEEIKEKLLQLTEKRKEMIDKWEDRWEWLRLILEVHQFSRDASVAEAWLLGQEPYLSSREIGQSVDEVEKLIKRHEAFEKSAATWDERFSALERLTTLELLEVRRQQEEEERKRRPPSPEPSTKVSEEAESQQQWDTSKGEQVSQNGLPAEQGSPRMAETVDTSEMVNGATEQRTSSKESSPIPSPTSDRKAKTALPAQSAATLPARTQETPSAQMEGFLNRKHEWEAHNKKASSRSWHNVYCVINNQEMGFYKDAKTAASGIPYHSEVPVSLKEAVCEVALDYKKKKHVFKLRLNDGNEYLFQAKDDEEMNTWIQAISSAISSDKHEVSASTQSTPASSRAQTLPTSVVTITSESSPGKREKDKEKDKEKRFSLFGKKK

effect of a mutation on the interaction [1]	effect of a mutation on the interaction [2]	effect of a mutation on the interaction [3]	effect of a mutation on the interaction [4]	effect of a mutation on the interaction [5]	Variant
increasing interaction strength	disrupting interaction strength	disrupting interaction strength	decreasing interaction strength	decreasing interaction strength	L360P
increasing interaction strength	disrupting interaction strength	disrupting interaction strength	decreasing interaction strength	disrupting interaction strength	Q538P
disrupting interaction strength	disrupting interaction strength	disrupting interaction strength	decreasing interaction strength	disrupting interaction strength	L535P
disrupting interaction strength	disrupting interaction strength	disrupting interaction strength	decreasing interaction strength	disrupting interaction strength	K364I

The next lines start with the variant.

Variant	effect of a mutation on the interaction [1]	effect of a mutation on the interaction [2]	effect of a mutation on the interaction [3]	effect of a mutation on the interaction [4]	effect of a mutation on the interaction [5]
N220Y	with no effect	increasing interaction strength	increasing interaction strength	with no effect	increasing interaction strength
T352M	increasing interaction strength	with no effect	increasing interaction strength	decreasing interaction strength	decreasing interaction strength
W41C	with no effect	with no effect	with no effect	decreasing interaction strength	increasing interaction strength
I273F	decreasing interaction strength	increasing interaction strength	increasing interaction strength	with no effect	increasing interaction strength
V219M	with no effect	with no effect	increasing interaction strength	with no effect	increasing interaction strength
G197C	with no effect	with no effect	with no effect	increasing interaction strength	decreasing interaction strength
L46R	disrupting interaction strength	decreasing interaction strength	decreasing interaction strength	disrupting interaction strength	disrupting interaction strength
